Experimental data reported in publication PMC9087215.

Assays:
[1] = molecular target: Klebsiella pneumoniae PriA helicase (Klebsiella pneumoniae subsp. pneumoniae MGH 78578) (UniProt A6TGC5)
[2] = molecular target: PaSSB(W88A) (Pseudomonas aeruginosa, UniProt P40947 1-165, W88A); experiment: EMSA
[3] = molecular target: PaSSB (Pseudomonas aeruginosa, UniProt P40947 1-165); experiment: EMSA
[4] = molecular target: PaSSB(F60A) (Pseudomonas aeruginosa, UniProt P40947 1-165, F60A); experiment: EMSA
[5] = molecular target: PaSSB(W40A) (Pseudomonas aeruginosa, UniProt P40947 1-165, W40A); experiment: EMSA
[6] = molecular target: PaSSB(W54A) (Pseudomonas aeruginosa, UniProt P40947 1-165, W54A); experiment: EMSA

“KpSSBn-StSSBc chimeric protein (from UniProt P0A2F6 92-176)” gave an ATPase activity of KpPriA with 10 μM KpSSBn-StSSBc, fold stimulation [1] of 14 fold.

TTTTTTTTTTTTTTTTTTTTTTTTTTTTTTTTTTTTTTTTTTTTTTTTTT (ssDNA) [dT50] was tested, and the “apparent K (half saturation)” value [2] was 1230 ± 61 nM, the “apparent K (half saturation)” value [3] was 355 ± 21 nM and the “apparent K (half saturation)” value [4] was 569 ± 24 nM. For the same molecule, the “apparent K (half saturation)” value [5] was 434 ± 19 nM and the “apparent K (half saturation)” value [6] was 522 ± 26 nM.
